Assay [1] has as its target T1, Broxl, long form of the human Brox protein (residues 2-411) (human, UniProt Q5VW32 2-411).
T1 sequence (looked up): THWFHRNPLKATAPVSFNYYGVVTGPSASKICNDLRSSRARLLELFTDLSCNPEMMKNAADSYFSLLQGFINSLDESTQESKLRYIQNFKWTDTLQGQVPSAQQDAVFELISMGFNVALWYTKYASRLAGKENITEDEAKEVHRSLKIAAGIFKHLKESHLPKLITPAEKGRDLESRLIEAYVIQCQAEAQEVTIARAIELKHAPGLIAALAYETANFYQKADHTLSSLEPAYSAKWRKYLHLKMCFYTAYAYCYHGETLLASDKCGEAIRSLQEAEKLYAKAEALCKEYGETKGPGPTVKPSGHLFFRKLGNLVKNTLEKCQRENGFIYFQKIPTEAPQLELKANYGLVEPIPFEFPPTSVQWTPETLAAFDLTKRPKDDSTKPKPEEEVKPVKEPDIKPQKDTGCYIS
The assay is described as follows: crystal structure.

Assay [2] concerns the target T2, Broxs, short form of the human Brox protein (residues 2-377) (human, UniProt Q5VW32 2-377).
T2 sequence (looked up): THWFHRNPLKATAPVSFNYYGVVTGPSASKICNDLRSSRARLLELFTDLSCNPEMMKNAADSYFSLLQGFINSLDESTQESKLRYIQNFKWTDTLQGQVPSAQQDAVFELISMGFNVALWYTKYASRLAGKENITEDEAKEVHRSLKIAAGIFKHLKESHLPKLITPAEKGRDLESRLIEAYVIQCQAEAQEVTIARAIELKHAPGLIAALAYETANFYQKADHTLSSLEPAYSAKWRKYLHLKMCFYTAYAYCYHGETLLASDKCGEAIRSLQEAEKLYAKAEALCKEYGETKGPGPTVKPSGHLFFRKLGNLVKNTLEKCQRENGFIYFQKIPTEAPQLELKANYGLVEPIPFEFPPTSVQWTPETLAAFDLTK
The assay is described as follows: crystal structure.

In the case of TKNKDGVLVDEFGLPQIPAS [synthesized peptide corresponding to the CHMP5 C-terminal 20 residues], the binding result in assay [1] and in assay [2] was “binds” in each case.

B1: C-terminal fragment of human CHMP5 (residues 151-219) (domain or fragment, UniProt Q9NZZ3 151-219, looked up)
chain: RSYGTPELDEDDLEAELDALGDELLADEDSSYLDEAASAPAIPEGVPTDTKNKDGVLVDEFGLPQIPAS
For B1, the binding result in assay [1] and in assay [2] was “binds” each time.
